Values quoted from earlier work, collected in patent US20040072753A1, “Peptides for use in the treatment of alzheimer's disease” (priority 2000, published 2004).

Biological target: Aβ (Homo sapiens, UniProt P05067)
Conditions: Milton, Biochem. J. 344: 293-296 (1999); read-out: binding KD for catalase

B1: catalase: antioxidant enzyme that binds Aβ (protein)
chain: ADSRDPASDQMQHWKEQRAAQKADVLTTGAGNPVGDKLNVITVGPRGPLLVQDVVFTDEMAHFDRERIPERVVHAKGAGAFGYFEVTHDITKYSKAKVFEHIGKKTPIAVRFSTVAGESGSADTVRDPRGFAVKFYTEDGNWDLVGNNTPIFFIRDPILFPSFIHSQKRNPQTHLKDPDMVWDFWSLRPESLHQVSFLFSDRGIPDGHRHMNGYGSHTFKLVNANGEAVYCKFHYKTDQGIKNLSVEDAARLSQEDPDYGIRDLFNAIATGKYPSWTFYIQVMTFNQAETFPFNPFDLTKVWPHKDYPLIPVGKLVLNRNPVNYFAEVEQIAFDPSNMPPGIEASPDKMLQGRLFAYPDTHRHRLGPNYLHIPVNCPYRARVANYQRDGPMCMQDNQGGAPNYYPNSFGAPEQQPSALEHSIQYSGEVRRFNTANDDNVTQVRAFYVNVLNEEQRKRLCENIAGHLKDAQIFIQKKAVKNFTEVHPDYGSHIQALLDKYNAEKPKNAIHTFVQSGSHLAAREKANL
- Kd: 3.3 nM
